According to the Immune Epitope Database (IEDB):

Key:
Test in all cases: IEDB peptide-MHC binding, purified MHC/competitive/radioactivity; filed as Kd, often an IC50 or EC50 that approximates it; ≥ and ≤ were set here for values at or beyond the usual limits of such assays
Details in all cases: source organism: Homo sapiens
[1] = target: HLA-B*39:06
[2] = target: HLA-B*38:01
[3] = target: HLA-B*39:01

Row | Sequence | Kd [1] [nM] | Kd [2] [nM] | Kd [3] [nM]
1 | THFPHQVIL | 2600 | 142 | 73
2 | NRVMLPKA | 41 | – | 85
3 | MRLLPLLA | 41 | ≥ 44500 | 62
4 | FRLLCALTSL | 7.4 | 2760 | 290
5 | NRVMLPKAA | 14 | ≥ 50000 | 35
6 | FLFLFAVG | 405 | ≥ 50000 | 17900
7 | YHFLQIPT | 151 | 9750 | 660
8 | SHLVEALYL | ≥ 35600 | 10 | 5250
9 | NHSSPCLEQF | ≥ 50000 | – | ≥ 25700
10 | SASIPLTVVA | 310 | ≥ 50000 | ≥ 30900
11 | SHVAVENAL | 696 | 321 | 11
12 | TNLFLFLFAV | 354 | 6690 | 3950
13 | WMRLLPLLA | 155 | ≥ 50000 | 865
